Measured values from patent US20110166063A1 (priority 2008, published 2011).
“And” between values parts separate entries of the source, which are not always exact repeats. Equal entries are not always repeated. Where two headings read alike, the source gives them in different places. Marks after values point to notes of the source that are not given here. Ends that are not written are not given here.

What was measured:
[1] = assay type: physicochemical
[2] = molecular target: human μ opioid receptor (Homo sapiens, UniProt P35372); assay: Radioligand competition binding assay, biphalin series, μ opioid receptor
Method: (§1) Competition binding experiments were conducted by incubating membrane protein to equilibrium in triplicate in the presence of a fixed concentration of radioligand and increasing concentrations (0.1 nM to 10 μM) of test compound in 100 μL final volume. The radioligands used were specific for each receptor type, and the assay conditions are described in Table BIP6.3. Following incubations, the membranes were rapidly filtered through GF/B filter plate (presoaked with 0.5% polyethyleneimine), washed four times with cold 50 mM Tris-HCl, pH 7.5, and the bound radioactivity was then measured. Non-specific binding was measured in the presence of excess naloxone (100 μM); this value was subtracted from the total binding to yield the specific binding at each test concentration.
(§2) The test compounds were stored under acidic condition to stabilize the PEG conjugation.
(§3) Ki (affinity of test compound) was obtained using the Cheng Prusoff correction using experimental Kd (affinity of radioligand) values that were previously determined under these assay conditions.

[3] = OGF release rate and stability of OGF; assay type: physicochemical; settings: 160 hours at 37° C., pH 7.5 and 16 hours at 37° C., pH 10.0
[4] = molecular target: human δ opioid receptor (Homo sapiens, UniProt P41143); assay: Radioligand competition binding assay, biphalin series, δ opioid receptor
Method: as §1, §2, §3

[5] = due to rapid proteolysis and glomerular filtration; cited from earlier work
[6] = Pharmacokinetic study of protegrin conjugates, single IV dose in rats; assay type: in vivo, Sprague-Dawley rats; settings: […] equivalent protein mass IV
Method: The weight range of the animals was 313-346 grams. All animals were food fasted overnight.
Following the last collection point, the animals were euthanized. Bioanalytical analysis: analysis of the plasma samples was conducted using non-validated LC-MS/MS methods.

[7] = tested on: rat red blood cells; assay: Hemolysis assay, protegrin-1 series; assay type: cell-based; settings: for hemolytic effect: rat red blood cells, 37° C., relative to 0.25% Triton X-100
Method: Approximately 10 mL of blood was drawn from one adult rat into Na Heparin tube and kept in ice until use. Red blood cells were washed three times with 10 mL of cold DPBS ((−) CaCl2 and (−) MgCl2) and collected by sequential centrifugation at 3,000 g for 5 min at 4° C. Pellets of red blood cells were resuspended with DPBS ((−) CaCl2 and (−) MgCl2) and the total volume was brought up to initial volume of blood drawn. One mL of resuspended red blood cells was resuspended with 49 mL of DPBS ((−) CaCl2 and (−) MgCl2). Incubation mixture was prepared by 400 fold dilution of stock solution of test compounds with final volume of 800 μl. Final concentration of test compounds was equimolar to that of respective unconjugated compounds. Hemolysis incubation was done at 37° C. with mild agitation. For releasable conjugates, test compounds were preincubated in 1×PBS at 37° C. prior to hemolysis assay. Incubation mixture was centrifuged at 3,000 g for 5 min at 4° C., and the absorbance at 550 nm was read from supernatant.

[8] = tested on: rat red blood cells; assay: Hemolysis assay, V681(V13AD) series; assay type: cell-based; settings: 37° C., relative to 0.25% Triton X-100
Method: Hemolysis assay. Approximately 10 mL of blood was drawn from one adult rat into Na Heparin tube and kept in ice until use. Red blood cells were washed three times with 10 mL of cold DPBS ((−) CaCl2 and (−) MgCl2) and collected by sequential centrifugation at 3,000 g for 5 min at 4° C. Pellets of red blood cells were resuspended with DPBS ((−) CaCl2 and (−) MgCl2) and the total volume was brought up to initial volume of blood drawn. One mL of resuspended red blood cells was resuspended with 49 mL of DPBS ((−) CaCl2 and (−) MgCl2). Incubation mixture was prepared by 400 fold dilution of stock solution of test compounds with final volume of 800 μl. Final concentration of test compounds was equimolar to that of respective unconjugated compounds. Hemolysis incubation was done at 37° C. with mild agitation.
For releasable conjugates, test compounds were preincubated in 1×PBS at 37° C. prior to hemolysis assay. Incubation mixture was centrifuged at 3,000 g for 5 min at 4° C., and the absorbance at 550 nm was read from supernatant.

[9] = Pharmacokinetic study of V681 (V13AD) conjugates, single IV dose in rats; assay type: in vivo, Sprague-Dawley rats; settings: 1.0 mg/kg equivalent protein mass IV
Description: The weight range of the animals was 311-346 grams. All animals were food fasted overnight. […] The predose sample was collected from the JVC.
Following the last collection point, the animals were euthanized.

[10] = molecular target: T1, GPR54 G-Protein coupled receptor (Homo sapiens, UniProt Q969F8); assay: FLIPR calcium flux agonist assay on GPR54; assay type: cell-based; settings: agonist activation at GPR54; no release incubation
T1 construct: host or cells: Chem-1 host cells

[11] = pH 5
[12] = Pre-incubated in assay buffer pH 7.5 at 37° C. (72 h biphalin and di-CAC; 20 h di-C2 and di-SBC)
[13] = sample diluted on the day of the assay (unreleased)
[14] = test compound in plasma (non-releasable conjugates, native PG-1), Mean ± SD
[15] = protegrin-1 in plasma (released or native)

Sequence of human μ opioid receptor (P35372 whole entry): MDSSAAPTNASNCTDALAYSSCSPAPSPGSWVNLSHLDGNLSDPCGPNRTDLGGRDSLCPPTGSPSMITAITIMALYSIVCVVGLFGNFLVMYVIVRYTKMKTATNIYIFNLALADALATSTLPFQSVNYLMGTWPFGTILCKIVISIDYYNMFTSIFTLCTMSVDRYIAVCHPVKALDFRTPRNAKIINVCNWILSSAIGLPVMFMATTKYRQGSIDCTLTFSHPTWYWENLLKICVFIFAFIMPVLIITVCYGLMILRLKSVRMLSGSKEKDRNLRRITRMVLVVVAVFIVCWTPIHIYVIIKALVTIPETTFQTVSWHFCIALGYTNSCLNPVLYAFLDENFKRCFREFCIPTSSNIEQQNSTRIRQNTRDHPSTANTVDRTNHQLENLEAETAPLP
Sequence of human δ opioid receptor (P41143 whole entry): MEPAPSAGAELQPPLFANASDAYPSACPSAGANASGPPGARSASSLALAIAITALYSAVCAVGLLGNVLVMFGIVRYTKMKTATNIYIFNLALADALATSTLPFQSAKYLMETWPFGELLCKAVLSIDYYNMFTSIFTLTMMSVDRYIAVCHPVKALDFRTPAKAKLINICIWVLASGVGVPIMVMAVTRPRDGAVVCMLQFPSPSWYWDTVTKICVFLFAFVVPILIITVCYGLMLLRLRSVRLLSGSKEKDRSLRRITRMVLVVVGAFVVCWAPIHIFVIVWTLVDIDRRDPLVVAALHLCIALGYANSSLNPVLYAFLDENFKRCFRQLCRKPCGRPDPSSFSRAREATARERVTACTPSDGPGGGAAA
T1 sequence (Q969F8 whole entry): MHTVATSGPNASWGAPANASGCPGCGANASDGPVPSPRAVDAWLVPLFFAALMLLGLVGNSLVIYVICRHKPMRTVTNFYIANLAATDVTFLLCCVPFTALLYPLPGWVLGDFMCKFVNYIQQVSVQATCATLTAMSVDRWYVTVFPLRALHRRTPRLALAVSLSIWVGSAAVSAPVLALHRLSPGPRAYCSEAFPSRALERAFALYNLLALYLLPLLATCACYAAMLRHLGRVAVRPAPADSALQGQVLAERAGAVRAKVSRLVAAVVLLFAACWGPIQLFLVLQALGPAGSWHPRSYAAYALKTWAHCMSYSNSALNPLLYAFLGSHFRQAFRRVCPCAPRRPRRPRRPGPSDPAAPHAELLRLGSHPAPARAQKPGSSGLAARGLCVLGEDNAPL

C[C@@H](NC(=O)[C@@H](N)Cc1ccc(O)cc1)C(=O)NCC(=O)N[C@@H](Cc1ccccc1)C(=O)NNC(=O)[C@H](Cc1ccccc1)NC(=O)CNC(=O)[C@@H](C)NC(=O)[C@@H](N)Cc1ccc(O)cc1 [Biphalin, reference compound]
stability of the peptide following incubation ([1]; 72 hour incubation in assay buffer, pH 7.5 at 37° C.): remained stable
Ki [2, 12]: 3.1 nM
Ki [2, 13]: 3.4 nM and 4.7 nM

CSCC[C@H](NC(=O)[C@H](Cc1ccccc1)NC(=O)CNC(=O)CNC(=O)[C@@H](N)Cc1ccc(O)cc1)C(=O)O [OGF, Opioid Growth Factor]
stability of the peptide following pre-incubation [3]: remained stable

(C2-20K)2-biphalin [Di-C2-PEG2-FMOC-NHS-20K-biphalin]
Ki [2, 12]: 10.1 nM
Ki [2, 13]: 21.7 nM

(CAC-20K)2-biphalin [Di-CAC-PEG2-FMOC-NHS-20K-biphalin]
Ki [2, 12]: 13.7 nM
Ki [2, 13]: 1120 nM

(SBC-30K)2-biphalin
stability of the conjugate ([1]; purification from the reaction mixture, even at acidic pH values): instability

(SBC-30K)2-biphalin [Di-mPEG-SBC-30K-biphalin]
Ki (nM), δ Opioid Receptor [4, 12]: not obtained

(SPA-2K)2-biphalin [Di-mPEG-SPA-2K-biphalin]
inhibition of specific binding at the highest test concentration ([4]; 10 μM): no measurable inhibition
inhibition of specific binding at the highest test concentration ([2]; 10 μM): no measurable inhibition

GHRH: growth hormone releasing hormone, stimulates growth hormone secretion from the anterior pituitary gland
half-life [5]: 10 to 20 min

[Protegrin-1]-[PEG-di-ButyrAldehyde-5K]-[Protegrin-1] (RGGRLCYCRRRFCVCVGR-NH2; cysteine pairing not given here; also: two peptide copies linked by PEG-dibutyraldehyde 5K; UniProt P32194 131-148, looked up) [PG-1-PEG-5K-PG-1]
CL [6, 14]: 135 ± 9.22 mL/h/kg
T1/2 [6, 14]: 6.8 ± 0.65 h
Vss [6, 14]: 248 ± 22.1 mL/kg
hemolytic effect ([7]; listed as PG1-ButyrALD-5K-PG1): little hemolytic activity
hemolytic effect ([7]; listed as PG1-ButyrALD-PG1): almost eliminated

[mono]-[mPEG2-20K]-[V681(V13AD)] [NHS-20K-V681 (V13AD)]
hemolytic effects [8]: almost eliminated
AUCINF [9]: 53.0 ± 1.1 µg·h/mL
CL [9]: 18.9 ± 0.39 mL/h/kg
Cmax [9]: 5210 ± 211 ng/mL
MRT [9]: 7.6 ± 1.1 h
T1/2 [9]: 5.8 ± 1.0 h
Vss [9]: 143 ± 23.7 mL/kg
mean AUC as multiple of V681 (V13AD) [9]: 24 times

[mono]-[mPEG-SMB-30K]-[V681(V13AD)] [SMB-30K-V681 (V13AD)]
hemolytic effects [8]: almost eliminated
AUCINF [9]: 158 ± 43 µg·h/mL
CL [9]: 6.6 ± 1.6 mL/h/kg
Cmax [9]: 4380 ± 505 ng/mL
MRT [9]: 38.3 ± 18.2 h
T1/2 [9]: 26.6 ± 12.5 h
Vss [9]: 235 ± 50 mL/kg
mean AUC as multiple of V681 (V13AD) [9]: 123 times

dextran-butyraldehyde-40K-protegrin-1 (RGGRLCYCRRRFCVCVGR-NH2; cysteine pairing not given here; also: dextran-butyraldehyde 40K conjugate; UniProt P32194 131-148, looked up) [Dextran-PG1]
hemolytic effect [7]: almost eliminated

mono-[mPEG2-ButyrAldehyde-40K]-[Kisspeptin-54] (GTSLSPPPESSGSPQQPGLSAPHSRQIPAPQGAVLVQREKDLPNYNWNSFGLRF-NH2; also: mPEG2-ButyrAldehyde 40K conjugate, site not given here; UniProt Q15726 68-121, looked up) [Ald40K-KP54]
EC50 (nM) [10]: No activity

mono-[mPEG2-CAC-FMOC-40K]-[PG-1] (RGGRLCYCRRRFCVCVGR-NH2; cysteine pairing not given here; also: releasable CAC-PEG2-FMOC 40K PEG, mono-conjugate, site not given here; UniProt P32194 131-148, looked up) [CAC-PEG2-FMOC-40K-PG-1, PG1 conjugate with a releasable linker]
T1/2 (hr) [6, 15]: 0.13* hr
Tmax [6, 15]: 1.8 min
hemolytic effects relative to that from PG1 ([7]; conjugate preincubated for 96 hr in 1XPBS at 37° C.): 60-70%

mono-mPEG-SBC-30K-ziconotide [SBC-ziconotide conjugate]
stability of the conjugate [11]: very unstable
